Experiment [1] concerns the target T1, mouse matriptase-2 ECD protein his tag (mouse, UniProt Q9DBI0 80-811).
T1 construct: aa 80-811 of Q9DBI0 with C-terminal linker and His tag; also called mouse MTP-2 ECD; moMTP-2
T1 sequence: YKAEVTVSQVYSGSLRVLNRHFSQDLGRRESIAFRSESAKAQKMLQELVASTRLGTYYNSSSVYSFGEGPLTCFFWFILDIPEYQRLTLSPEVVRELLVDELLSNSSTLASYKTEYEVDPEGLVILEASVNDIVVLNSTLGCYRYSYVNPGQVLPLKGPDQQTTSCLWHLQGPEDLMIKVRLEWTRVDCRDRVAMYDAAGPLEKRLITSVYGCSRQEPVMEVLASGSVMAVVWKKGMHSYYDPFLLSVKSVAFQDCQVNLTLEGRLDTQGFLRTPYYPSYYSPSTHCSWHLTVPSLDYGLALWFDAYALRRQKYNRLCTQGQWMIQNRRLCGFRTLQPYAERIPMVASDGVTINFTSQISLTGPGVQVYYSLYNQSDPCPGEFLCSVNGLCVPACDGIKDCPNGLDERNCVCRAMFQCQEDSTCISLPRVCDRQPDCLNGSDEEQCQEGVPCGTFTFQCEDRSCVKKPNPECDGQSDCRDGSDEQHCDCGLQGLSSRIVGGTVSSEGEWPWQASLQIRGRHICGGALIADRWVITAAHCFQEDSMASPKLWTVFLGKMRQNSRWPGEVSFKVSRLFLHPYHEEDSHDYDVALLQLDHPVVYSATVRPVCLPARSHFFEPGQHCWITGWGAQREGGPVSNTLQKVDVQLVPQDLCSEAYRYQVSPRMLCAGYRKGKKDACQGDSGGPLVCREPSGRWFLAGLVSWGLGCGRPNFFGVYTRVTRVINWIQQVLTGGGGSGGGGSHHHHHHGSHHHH
Kind of experiment: HTRF competition with 647-labelled aprotinin for mouse MTP-2 protein. The text has this:
Aprotinin is a pan serine protease inhibitor and is known to occupy the active site of serine proteases. A HTRF competition assay against labelled aprotinin confirmed that NORI-003, NORI-006, NORI-008 and NORI-011 were binding at or near this same site and competed with aprotinin for binding to human MTP-2 protein. […] This was confirmed by their lack of competition of aprotinin against moMTP-2 while IC50 values in the enzymatic assay were similar to those of NORI-011. […] FIG. 8. Table L.
Antibodies were titrated into HTRF buffer (DPBS (Gibco—14190144) with 0.1% BSA (Sigma—A7906) and potassium fluoride 0.53M (Sigma—60240-250 G)) at 4× conc with a starting concentration of 200 nM. 5 μL/w of antibodies were added to 384-well white plates (Greiner—784904). Purified proteins of huMTP-2 and moMTP-2 were diluted into HTRF buffer (huMTP-2=40 nM and moMTP-2=240 nM) 4× final conc and plate 5 μL/w. Anti-MTP-2 mAb (NORI-037) in molgG1 backbone was then diluted to 1.2 nM 4× final conc with DELFIA Eu-N1 Rabbit Anti-Mouse-IgG antibody (AD0207) at a 1:1000 dilution 4× final conc in HTRF buffer. Finally, dilute 647-labelled Aprotinin (Sigma—A3428) in HTRF buffer to 20 nM 4× final conc and plate 5 μL/w. Incubate plates for 3 hours or more at RT in the dark. Read plate using HTRF 100 flashes protocol on the EnVision plate reader at 1H 2H and 3H. (Ex: 340 nm Em1: 620 nm Em2: 665 nm).

In experiment [2] the target is T2, human matriptase-2 ECD protein his tag (human, UniProt Q8IU80 78-811).
T2 construct: also called human MTP-2 ECD; huMTP-2
T2 sequence: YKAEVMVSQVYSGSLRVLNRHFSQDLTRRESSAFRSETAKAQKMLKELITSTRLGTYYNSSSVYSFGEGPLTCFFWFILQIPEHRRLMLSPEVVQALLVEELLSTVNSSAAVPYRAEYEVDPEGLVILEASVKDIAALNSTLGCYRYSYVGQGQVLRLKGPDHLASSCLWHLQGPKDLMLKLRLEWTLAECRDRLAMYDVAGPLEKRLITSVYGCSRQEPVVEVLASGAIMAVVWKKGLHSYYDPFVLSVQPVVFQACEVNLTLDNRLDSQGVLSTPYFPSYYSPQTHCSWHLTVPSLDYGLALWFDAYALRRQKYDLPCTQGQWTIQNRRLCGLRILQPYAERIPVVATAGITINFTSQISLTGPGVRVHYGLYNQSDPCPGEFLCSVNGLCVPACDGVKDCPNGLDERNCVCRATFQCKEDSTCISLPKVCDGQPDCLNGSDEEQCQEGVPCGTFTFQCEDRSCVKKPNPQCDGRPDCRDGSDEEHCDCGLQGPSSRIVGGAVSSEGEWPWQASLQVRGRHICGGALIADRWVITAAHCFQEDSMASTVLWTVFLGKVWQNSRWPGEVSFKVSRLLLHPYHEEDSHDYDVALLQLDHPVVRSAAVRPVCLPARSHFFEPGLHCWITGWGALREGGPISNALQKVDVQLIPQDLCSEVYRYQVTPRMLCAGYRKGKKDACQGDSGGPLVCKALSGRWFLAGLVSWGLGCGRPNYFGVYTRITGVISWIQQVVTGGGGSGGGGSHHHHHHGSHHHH
Put plainly: SPR, his-tagged MTP-2 ECD protein (Table W); true KD could not be measured accurately, very slow off-rate. How it is done:
(§1) Off-rate screening was performed by surface plasmon resonance (SPR), using a Biacore 8K system (GE Healthcare). Anti-human Fc mix (˜1000 RU) were immobilised in both active and reference channels in HBS-P+ buffer (GE BR100671) pH 7.4. Anti-MTP-2 hulgG4PE antibodies were then captured for 60 sec at 10 μl/min at 1 μg/ml concentration (approximatively 35 and 50 RU were captured) only on the active channel. MTP-2 ECD protein analytes were then injected (at 100, 25, 6.25, 1.56 and 0 nM concentrations) for 120 sec (association time) at 30 μl/min and dissociation monitored for 600 sec. Multiple cycle kinetics mode was used with all 8 channels being used. Reference and background were subtracted from the sensorgrams for each antibody and data was fitted using a 1:1 interaction model in the Biacore evaluation software. Rmax, ka, kd globally fitted, RI=0.
(§2) NORI-011, NORI-008, NORI-003 and NORI-006 were all found to have cross-reactive binding to human, mouse, cyno and rat MTP-2 ECD proteins. […] The true KD value for NORI-008 could not be measured accurately for human or mouse MTP-2 due to a very slow off-rate.
(In general: In SPR one partner is held on a chip, and binding of the other changes the refractive index at the surface.)

Experiment [3] concerns the target T1, mouse matriptase-2 ECD protein his tag. The description is as above. How it is done: as §1, §2
The target is the same in experiment [4]. Kind of experiment: SPR (Biacore 8K), huIgG4PE captured on anti-human Fc, MTP-2 ECD as analyte, 1:1 fit; true KD could be < the value shown. As to the method: as §1

Residue numbers refer to the chain shown, from its start. Names and notes keep the numbering of the source. Bounds are passed on as bounds.

B1: NORI-008 (antibody, human IgG4 S228P, kappa, V domains shown)
VH: QVQLQESGPGLVKPSETLSLTCSVSGGSVSSGRYYWTWIRQPPGKGLEWIGYISNSGNTNYNPSLKSRVTISLDTSKKQFSLSLSAVTAADTAVYYCARGFIYDYWFDPWGQGSLVTVSS
VL: DSQMTQSPSSLSASVGDRVTITCQASQDIDNYLNWYQQRPGKAPKLLIYDASKLETGVPSRFSGSGSGTDFTFTISSLQPEDFATYYCQQYGNLPITFGQGTRLDIKR
notes: human IgG4PE, kappa, in the in vitro assays; a mouse IgG1 format was used in one in vivo study only; also called NORI-008 hulgG4PE; NORI-008 IgG
The molecule B1 registered an IC50 in experiment [1] of 1420 pM. The Kd in experiment [2] worked out at 0.0169 pM; in experiment [3], 0.206 pM.

B2: NORI-013 (antibody, human IgG4 S228P, lambda, V domains shown)
VH: EVQLVESGGGLIQAGRSLRLSCAASGFTFDEHVIYWVRQIPGKGLEWISSISWKSDIIAYADSVKGRFTISRDNAKNALYLQMNSLRAEDTALYYCAREKDGDFYYYYFAMDVWGQGTTVTVSS
VL: QSALTQPPSASGSPGQSVTLSCTGTSSDVGYYNYVSWYLQHPGKAPKLMIYEVSKRPSGVPDRFSGSKSANTASLTVSGLQAEDEADYYCSSYAGSNKVVFGGGTKVTVLG
notes: human IgG4PE, lambda
Regarding B2, the Kd in experiment [4] is ≤ 949 pM.

B3: NORI-014 (antibody, human IgG4 S228P, lambda, V domains shown)
VH: B2 VH with I34M, S52T
VL: B2 VL
notes: human IgG4PE, lambda
For B3, the Kd in experiment [4] was ≤ 830 pM.

B4: NORI-011 (antibody, human IgG4 S228P, lambda)
heavy: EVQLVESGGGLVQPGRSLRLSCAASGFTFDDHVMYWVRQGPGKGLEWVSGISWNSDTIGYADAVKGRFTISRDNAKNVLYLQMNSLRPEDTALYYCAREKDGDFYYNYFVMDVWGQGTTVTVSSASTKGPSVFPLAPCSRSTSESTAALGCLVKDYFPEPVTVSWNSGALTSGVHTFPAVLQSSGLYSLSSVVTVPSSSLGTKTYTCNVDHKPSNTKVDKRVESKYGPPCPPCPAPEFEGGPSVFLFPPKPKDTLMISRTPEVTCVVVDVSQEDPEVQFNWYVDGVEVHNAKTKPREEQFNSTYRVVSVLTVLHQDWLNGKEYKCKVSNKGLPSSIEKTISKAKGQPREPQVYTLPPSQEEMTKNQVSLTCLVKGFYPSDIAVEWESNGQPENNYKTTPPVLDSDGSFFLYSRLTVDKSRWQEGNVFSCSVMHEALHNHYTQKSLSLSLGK
light: QSALTQPPSASGSPGQSVTISCTGTSSDVGFYNFVSWYQQHPDKAPKVMIYEVSKRPSGVPDRFSGSKSGNTASLTVSGLQAEDEADYYCSSYAGSNKVVFGGGTKLTVLGQPKAAPSVTLFPPSSEELQANKATLVCLISDFYPGAVTVAWKADSSPVKAGVETTTPSKQSNNKYAASSYLSLTPEQWKSHRSYSCQVTHEGSTVEKTVAPTECS
notes: human IgG4PE, lambda; NORI-010 with a P124S mutation in the VH domain
In experiment [1], B4 showed an IC50 of 120000 pM.

As a reminder, the IC50 is the concentration needed to halve the response being measured. One may read the Kd as the equilibrium constant for the complex coming apart. A low value points to tighter binding.
